Results published in article PMC7661550, “A ‘Split-Gene’ Transketolase From the Hyper-Thermophilic Bacterium Carboxydothermus hydrogenoformans: Structure and Biochemical Characterization” (Frontiers in Microbiology, 2020).

B1: ChTK-F (Carboxydothermus hydrogenoformans Z-2901) (protein)
chain 1: MQDEILNLKLIANQLRQHVVKMVGEANSGHPGGSLSAADILAVLFFKEMRIDPANPKWQDRDRFVLSKGHASPVLYAALAERGFFPKEWLSQFRKINSPLQGHPDMKKVPGVEMSTGSLGQGFSTAVGMALGLKLDRSPARVYVLLGDGEIQEGIVWEAAMAAAHYKLNNLTAILDYNGLQIDGPVQEVMNPEPVADKWRSFGFKVITVDGHNIPEIINAIDAARLHLEGPTIIIAKTVKGKGVSFMENRVEWHGSAPKPEQVAEALSELQVGREKLWEE
chain 2: MGGIATREAYGKALVELGQENPKIVVLDADLSKSTKTSDFAKAFPERFFNMGIAEQNLMGVAAGLSTVGKIPFASTFAVFAAGRAFEIIRNSICYPKLNVKIAATHAGLTVGEDGASHQAIEDLALMRVLPNMQVFVPADAAQTRAIVKKAAEIEGPVYIRLGRSGVPEVFSPDIRFEPGRGTVLKEGKDVTIVALGIMTAKALEAAKMLEAEGIAARVVDMASLKPIDRELLVESARLTGAVVTAEEHSVIGGLGSAVAEVLSEEYPIPVVKVGVNDVFGESGTPQALLEKYGLTARDVVAAVQKALTLKR
notes: two split-gene subunits (alpha ChTK-N, PP domain)
B2: ChTK-C, C-terminal 'split-gene' transketolase polypeptide (Pyr and C-terminal domains) of Carboxydothermus hydrogenoformans (natural protein, Carboxydothermus hydrogenoformans Z-2901)
chain: MGGIATREAYGKALVELGQENPKIVVLDADLSKSTKTSDFAKAFPERFFNMGIAEQNLMGVAAGLSTVGKIPFASTFAVFAAGRAFEIIRNSICYPKLNVKIAATHAGLTVGEDGASHQAIEDLALMRVLPNMQVFVPADAAQTRAIVKKAAEIEGPVYIRLGRSGVPEVFSPDIRFEPGRGTVLKEGKDVTIVALGIMTAKALEAAKMLEAEGIAARVVDMASLKPIDRELLVESARLTGAVVTAEEHSVIGGLGSAVAEVLSEEYPIPVVKVGVNDVFGESGTPQALLEKYGLTARDVVAAVQKALTLKR
notes: Pyr domain residues 1-162 and C-terminal domain residues 164-312; calculated mass of the His-tagged protein 33.2 kDa; chain D of PDB 6YAK, all chains of PDB 6YAJ; The gene was cloned into the LIC site of pLATE51; By gel filtration the free protein elutes as a tetramer; two copies stand in the α2β2 heterotetramer ChTK-F; also called β subunit of ChTK-F (α2β2); ChTK β4; source: E. coli BL21 DE3*, …
B3: ChTK-N, N-terminal 'split-gene' transketolase polypeptide (PP domain) of Carboxydothermus hydrogenoformans (natural protein, Carboxydothermus hydrogenoformans Z-2901)
chain: MQDEILNLKLIANQLRQHVVKMVGEANSGHPGGSLSAADILAVLFFKEMRIDPANPKWQDRDRFVLSKGHASPVLYAALAERGFFPKEWLSQFRKINSPLQGHPDMKKVPGVEMSTGSLGQGFSTAVGMALGLKLDRSPARVYVLLGDGEIQEGIVWEAAMAAAHYKLNNLTAILDYNGLQIDGPVQEVMNPEPVADKWRSFGFKVITVDGHNIPEIINAIDAARLHLEGPTIIIAKTVKGKGVSFMENRVEWHGSAPKPEQVAEALSELQVGREKLWEE
notes: forms the PP domain; calculated mass of the His-tagged protein 31.0 kDa; chain A of PDB 6YAK; The gene was cloned into the LIC site of pLATE51; By gel filtration the free protein elutes as a dimer; two copies stand in the α2β2 heterotetramer ChTK-F; also called α subunit of ChTK-F (α2β2); source: E. coli BL21 DE3*, purified (heat treatment at 50°C, HisTrap/Ni-NTA, Superdex 200 gel filtration)

Tests used:
purified protein = substrate: O=CCO; experiment: purified protein; assay type: biochemical, Carboxydothermus hydrogenoformans; conditions: hydroxypyruvate 100 mM as ketol donor, TPP, CaCl2, 10 mM HEPES pH 7.2, 0.1 M NaCl, room temperature
[1] = target: the molecule itself; experiment: crystal structure; reconstituted ChTK-F α2β2 with TPP and Ca2+, 2.1 M DL-malic acid pH 7.0, space group I222, 1.4 Å (PDB 6YAK); also a PEG 1500 crystal form at 2.1 Å
[2] = target: the molecule itself; experiment: SEC; each protein alone on a calibrated Superdex 200 HiLoad 16/60 column, 10 mM HEPES, 0.1 M NaCl, pH 7.2; apparent molecular mass

Protein	Km (purified protein) [mM]	stoichiometry N [1]	stoichiometry N [2]
B1	41 ± 4		
B2		2	4
B3			2
